This note sets out measurements from patent publication US20150344570A1 (published 2015).

The chains are these.
T1: FcγRIIb extracellular domain with C-terminal His tag (human, UniProt P31994 43-217)
T1 construct: extracellular domain; also called FcgRIIb; CD32B; not shown: His tag at the C terminus
T1 sequence (looked up): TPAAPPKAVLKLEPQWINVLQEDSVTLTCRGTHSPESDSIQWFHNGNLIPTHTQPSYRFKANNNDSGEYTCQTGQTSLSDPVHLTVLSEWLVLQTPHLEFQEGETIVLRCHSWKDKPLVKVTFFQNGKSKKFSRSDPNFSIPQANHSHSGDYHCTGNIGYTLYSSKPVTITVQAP

T2: FcγRIIb (human, UniProt P31994 43-217)
T2 construct: extracellular domain; Soluble extracellular domain with a C-terminal His tag, expressed in FreeStyle293 cells; also called FcgRIIb; 2b; not shown: His tag attached to the C terminus
T2 sequence (looked up): T1 sequence (looked up)

B1: GpH7-A5/GpH7-B3 variant G236_06M/GpL16-k0 (antibody, human IgG1, kappa)
heavy 1: not shown
heavy 2: not shown
light: DIVMTQSPLSLPVTPGEPASISCQASESLVHSNRNTYLHWYLQKPGQSPQLLIYKVSNRFSGVPDRFSGSGSGTDFTLKISRVEAEDVGVYYCSQNTHVPPTFGQGTKVEIERTVAAPSVFIFPPSDEQLKSGTASVVCLLNNFYPREAKVQWKVDNALQSGNSQESVTEQDSKDSTYSLSSTLTLSKADYEKHKVYACEVTHQGLSSPVTKSFNRGEC
notes: Heterodimerized anti-glypican-3 IgG1; mutation only in the GpH7-B3 H chain; also called He Ab
B2: GpH7-A5/GpH7-B3 variant G237_05P/GpL16-k0 (antibody, human IgG1, kappa)
heavy 1: not shown
heavy 2: not shown
light: B1 light
notes: as for B1
B3: GpH7-A5/GpH7-B3 variant G236_19Q/GpL16-k0 (antibody, human IgG1, kappa)
heavy 1: not shown
heavy 2: not shown
light: B1 light
notes: as for B1
B4: GpH7-A5/GpH7-B3 variant G236_11K/GpL16-k0 (antibody, human IgG1, kappa)
heavy 1: not shown
heavy 2: not shown
light: B1 light
notes: as for B1
B5: GpH7-A5/GpH7-B3 variant G236_16H/GpL16-k0 (antibody, human IgG1, kappa)
heavy 1: not shown
heavy 2: not shown
light: B1 light
notes: as for B1
B6: GpH7-A5/GpH7-B3 variant G236_08L/GpL16-k0 (antibody, human IgG1, kappa)
heavy 1: not shown
heavy 2: not shown
light: B1 light
notes: as for B1
B7: GpH7-A5/GpH7-B3 variant P238_13S/GpL16-k0 (antibody, human IgG1, kappa)
heavy 1: not shown
heavy 2: not shown
light: B1 light
notes: as for B1
B8: GpH7-A5/GpH7-B3 variant G237_03V/GpL16-k0 (antibody, human IgG1, kappa)
heavy 1: not shown
heavy 2: not shown
light: B1 light
notes: as for B1
B9: GpH7-A5/GpH7-B3 variant P238_11K/GpL16-k0 (antibody, human IgG1, kappa)
heavy 1: not shown
heavy 2: not shown
light: B1 light
notes: as for B1
B10: GpH7-A5/GpH7-B3 variant G236_14T/GpL16-k0 (antibody, human IgG1, kappa)
heavy 1: not shown
heavy 2: not shown
light: B1 light
notes: as for B1
B11: GpH7-A5/GpH7-B3 variant G236_20W/GpL16-k0 (antibody, human IgG1, kappa)
heavy 1: not shown
heavy 2: not shown
light: B1 light
notes: Heterodimerized anti-glypican-3 IgG1; mutation only in the GpH7-B3 H chain; also called He Ab; GpH7-A5/GpH7-B3-03-20W/GpL16-k0
B12: GpH7-A5/GpH7-B3 variant S239_04F/GpL16-k0 (antibody, human IgG1, kappa)
heavy 1: not shown
heavy 2: not shown
light: B1 light
notes: as for B1
B13: GpH7-A5/GpH7-B3 variant S239_11K/GpL16-k0 (antibody, human IgG1, kappa)
heavy 1: not shown
heavy 2: not shown
light: B1 light
notes: as for B1
B14: GpH7-A5/GpH7-B3 variant G236_15Y/GpL16-k0 (antibody, human IgG1, kappa)
heavy 1: not shown
heavy 2: not shown
light: B1 light
notes: as for B1
B15: GpH7-A5/GpH7-B3 variant P238_07I/GpL16-k0 (antibody, human IgG1, kappa)
heavy 1: not shown
heavy 2: not shown
light: B1 light
notes: as for B1
B16: GpH7-A5/GpH7-B3 variant P238_01G/GpL16-k0 (antibody, human IgG1, kappa)
heavy 1: not shown
heavy 2: not shown
light: B1 light
notes: as for B1
B17: GpH7-A5/GpH7-B3 variant S239_15Y/GpL16-k0 (antibody, human IgG1, kappa)
heavy 1: not shown
heavy 2: not shown
light: B1 light
notes: as for B1
B18: GpH7-A5/GpH7-B3 variant S239_12R/GpL16-k0 (antibody, human IgG1, kappa)
heavy 1: not shown
heavy 2: not shown
light: B1 light
notes: as for B1
B19: GpH7-A5/GpH7-B3 variant P238_18N/GpL16-k0 (antibody, human IgG1, kappa)
heavy 1: not shown
heavy 2: not shown
light: B1 light
notes: as for B1
B20: GpH7-A5/GpH7-B3 variant P238_02A/GpL16-k0 (antibody, human IgG1, kappa)
heavy 1: not shown
heavy 2: not shown
light: B1 light
notes: as for B1
B21: GpH7-A5/GpH7-B3 variant P238_12R/GpL16-k0 (antibody, human IgG1, kappa)
heavy 1: not shown
heavy 2: not shown
light: B1 light
notes: as for B1
B22: GpH7-A5/GpH7-B3 variant G237_16H/GpL16-k0 (antibody, human IgG1, kappa)
heavy 1: not shown
heavy 2: not shown
light: B1 light
notes: as for B1
B23: GpH7-A5/GpH7-B3 variant P238_14T/GpL16-k0 (antibody, human IgG1, kappa)
heavy 1: not shown
heavy 2: not shown
light: B1 light
notes: as for B1
B24: GpH7-A5/GpH7-B3 variant G236_12R/GpL16-k0 (antibody, human IgG1, kappa)
heavy 1: not shown
heavy 2: not shown
light: B1 light
notes: as for B1
B25: GpH7-A5/GpH7-B3 variant G237_14T/GpL16-k0 (antibody, human IgG1, kappa)
heavy 1: not shown
heavy 2: not shown
light: B1 light
notes: as for B1
B26: GpH7-A5/GpH7-B3 variant G236_07I/GpL16-k0 (antibody, human IgG1, kappa)
heavy 1: not shown
heavy 2: not shown
light: B1 light
notes: as for B1
B27: GpH7-A5/GpH7-B3 variant S239_19Q/GpL16-k0 (antibody, human IgG1, kappa)
heavy 1: not shown
heavy 2: not shown
light: B1 light
notes: Heterodimerized anti-glypican-3 IgG1; the mutation is in the GpH7-B3 chain only; also called He Ab

In one assay the target is T1, FcγRIIb extracellular domain with …. The experiment in a line: SPR (Biacore), antibody captured, FcγR analyte; relative to GpH7-A5/GpH7-B3/GpL16-k0 = 100.
For B1, the He/Con_2b was 45.5 % of HeCon Ab.

B2: the He/Con_2b is 24.6 % of HeCon Ab.

For B3, the He/Con_2b is 46.6 % of HeCon Ab.

Turning to B4, the He/Con_2b was 49.8 % of HeCon Ab.

With B5, the He/Con_2b was 27.9 % of HeCon Ab.

For the molecule B6, the He/Con_2b is 26.8 % of HeCon Ab.

On to B7, for which the He/Con_2b was 70.4 % of HeCon Ab.

Regarding B8, the He/Con_2b was 61.4 % of HeCon Ab.

In the case of B9, the He/Con_2b was 18.1 % of HeCon Ab.

Turning to B10, the He/Con_2b is 57.8 % of HeCon Ab.

Turning to B11, the He/Con_2b was 58.2 % of HeCon Ab.

With B12, the He/Con_2b was 44.1 % of HeCon Ab.

As to B13, the He/Con_2b was 24.7 % of HeCon Ab.

For the molecule B14, the He/Con_2b was 39.5 % of HeCon Ab.

For the molecule B15, the He/Con_2b is 80 % of HeCon Ab.

As to B16, the He/Con_2b was 56 % of HeCon Ab.

For the molecule B17, the He/Con_2b is 34.9 % of HeCon Ab.

Consider B18, for which the He/Con_2b was 39.1 % of HeCon Ab.

For B19, the He/Con_2b is 73.2 % of HeCon Ab.

As for B20, the He/Con_2b is 57.4 % of HeCon Ab.

Turning to B21, the He/Con_2b was 51.4 % of HeCon Ab.

For the molecule B22, the He/Con_2b is 55.2 % of HeCon Ab.

On to B23, for which the He/Con_2b was 50.7 % of HeCon Ab.

Turning to B24, the He/Con_2b is 6.8 % of HeCon Ab.

For the molecule B25, the He/Con_2b is 54.8 % of HeCon Ab.

Consider B26, for which the He/Con_2b is 31 % of HeCon Ab.

In a further assay the target is T3, FcγRIa extracellular domain with C-terminal His tag (human, UniProt P12314 16-292).
T3 construct: extracellular domain; also called FcgRI; CD64; not shown: His tag at the C terminus
T3 sequence (P12314 16-292): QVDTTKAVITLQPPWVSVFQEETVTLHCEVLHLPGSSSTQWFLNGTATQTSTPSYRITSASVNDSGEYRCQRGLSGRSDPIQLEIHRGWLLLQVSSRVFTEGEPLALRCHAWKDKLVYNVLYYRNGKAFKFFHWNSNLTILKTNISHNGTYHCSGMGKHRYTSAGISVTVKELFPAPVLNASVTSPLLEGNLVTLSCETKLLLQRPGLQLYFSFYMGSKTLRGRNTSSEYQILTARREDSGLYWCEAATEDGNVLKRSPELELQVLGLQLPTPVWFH
Described as above.
B1: the He/Con_1a is 96.7 % of HeCon Ab.

Turning to B2, the He/Con_1a is 44.5 % of HeCon Ab.

Turning to B3, the He/Con_1a is 92.1 % of HeCon Ab.

As to B4, the He/Con_1a is 71 % of HeCon Ab.

As to B5, the He/Con_1a was 83.5 % of HeCon Ab.

As to B6, the He/Con_1a was 79.6 % of HeCon Ab.

In the case of B7, the He/Con_1a was 96.6 % of HeCon Ab.

With B8, the He/Con_1a is 78.5 % of HeCon Ab.

On to B9, for which the He/Con_1a was 77.4 % of HeCon Ab.

Consider B10, for which the He/Con_1a was 92.2 % of HeCon Ab.

For the molecule B11, the He/Con_1a was 105 % of HeCon Ab.

B12: the He/Con_1a was 93.8 % of HeCon Ab.

B13: the He/Con_1a was 68 % of HeCon Ab.

On to B14, for which the He/Con_1a was 92.5 % of HeCon Ab.

In the case of B15, the He/Con_1a was 99.1 % of HeCon Ab.

As to B16, the He/Con_1a was 92.9 % of HeCon Ab.

As for B17, the He/Con_1a was 89.8 % of HeCon Ab.

B18: the He/Con_1a was 86.5 % of HeCon Ab.

B19: the He/Con_1a is 93.3 % of HeCon Ab.

For B20, the He/Con_1a is 95.2 % of HeCon Ab.

B21: the He/Con_1a was 77.3 % of HeCon Ab.

For B22, the He/Con_1a is 72.6 % of HeCon Ab.

Consider B23, for which the He/Con_1a was 91.1 % of HeCon Ab.

B24: the He/Con_1a is 63.1 % of HeCon Ab.

For B25, the He/Con_1a is 82.3 % of HeCon Ab.

Regarding B26, the He/Con_1a is 87.5 % of HeCon Ab.

The target of another assay is T4, FcγRIIIa (human, UniProt P08637 17-208).
T4 construct: extracellular domain; Soluble extracellular domain with a C-terminal His tag; also called FcgRIIIa; 3a; not shown: His tag attached to the C terminus
T4 sequence (P08637 17-208): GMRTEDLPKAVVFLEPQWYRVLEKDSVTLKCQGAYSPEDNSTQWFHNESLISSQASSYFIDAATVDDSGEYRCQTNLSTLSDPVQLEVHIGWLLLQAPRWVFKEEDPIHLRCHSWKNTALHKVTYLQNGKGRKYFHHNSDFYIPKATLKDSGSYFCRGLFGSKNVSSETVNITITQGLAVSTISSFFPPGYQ
Nature of the assay: SPR; He/Con_3a (FcγRIIIa) divided by He/Con_2b (FcγRIIb).
B27: the “He_3a/2b (IIIa/IIb)” value turned out to be 0.66 ratio.

Another assay deals with T3, FcγRIa extracellular domain with …. The experiment in a line: SPR; He/Con_1a divided by He/Con_2b (FcγRIa against FcγRIIb).
For B1, the “He_1a/2b (Ia/IIb)” value turned out to be 2.13 ratio.

With B2, the “He_1a/2b (Ia/IIb)” value came to 1.81 ratio.

On to B3, for which the “He_1a/2b (Ia/IIb)” value is 1.98 ratio.

In the case of B4, the “He_1a/2b (Ia/IIb)” value is 1.42 ratio.

Turning to B5, the “He_1a/2b (Ia/IIb)” value amounted to 2.99 ratio.

On to B6, for which the “He_1a/2b (Ia/IIb)” value turned out to be 2.97 ratio.

For the molecule B7, the “He_1a/2b (Ia/IIb)” value stood at 1.37 ratio.

Consider B8, for which the “He_1a/2b (Ia/IIb)” value turned out to be 1.28 ratio.

Regarding B9, the “He_1a/2b (Ia/IIb)” value came out at 4.27 ratio.

As to B10, the “He_1a/2b (Ia/IIb)” value worked out at 1.59 ratio.

Take B11: the “He_1a/2b (Ia/IIb)” value came to 1.81 ratio.

Consider B12, for which the “He_1a/2b (Ia/IIb)” value came to 2.13 ratio.

As for B13, the “He_1a/2b (Ia/IIb)” value stood at 2.75 ratio.

For B14, the “He_1a/2b (Ia/IIb)” value was 2.34 ratio.

Turning to B15, the “He_1a/2b (Ia/IIb)” value stood at 1.24 ratio.

On to B16, for which the “He_1a/2b (Ia/IIb)” value turned out to be 1.66 ratio.

B17: the “He_1a/2b (Ia/IIb)” value turned out to be 2.57 ratio.

On to B18, for which the “He_1a/2b (Ia/IIb)” value was 2.21 ratio.

As to B19, the “He_1a/2b (Ia/IIb)” value was 1.27 ratio.

For B20, the “He_1a/2b (Ia/IIb)” value is 1.66 ratio.

Consider B21, for which the “He_1a/2b (Ia/IIb)” value is 1.5 ratio.

With B22, the “He_1a/2b (Ia/IIb)” value turned out to be 1.32 ratio.

On to B23, for which the “He_1a/2b (Ia/IIb)” value was 1.8 ratio.

Consider B24, for which the “He_1a/2b (Ia/IIb)” value was 9.3 ratio.

In the case of B25, the “He_1a/2b (Ia/IIb)” value came out at 1.5 ratio.

B26: the “He_1a/2b (Ia/IIb)” value came to 2.82 ratio.

In the next assay the target is T2, FcγRIIb. The experiment in a line: SPR (Biacore), antibody captured on chip, FcγR as analyte.
On to B27, for which the He/Con_2b was 86.1 relative binding, GpH7-A5/GpH7-B3/GpL16-k0 = 100.

A further assay concerns the target T4, FcγRIIIa. The description is as above.
Turning to B27, the He/Con_3a is 56.9 relative binding, GpH7-A5/GpH7-B3/GpL16-k0 = 100.
